Data from publication PMC3949604.

Biological target: AhR (baculovirus);Arnt (baculovirus) (human;human, UniProt P35869;P27540 1-848;1-789, |)
Assay: EMSA

AhR (baculovirus);Arnt (baculovirus), sequence (P35869 whole entry, chain 1 of 2): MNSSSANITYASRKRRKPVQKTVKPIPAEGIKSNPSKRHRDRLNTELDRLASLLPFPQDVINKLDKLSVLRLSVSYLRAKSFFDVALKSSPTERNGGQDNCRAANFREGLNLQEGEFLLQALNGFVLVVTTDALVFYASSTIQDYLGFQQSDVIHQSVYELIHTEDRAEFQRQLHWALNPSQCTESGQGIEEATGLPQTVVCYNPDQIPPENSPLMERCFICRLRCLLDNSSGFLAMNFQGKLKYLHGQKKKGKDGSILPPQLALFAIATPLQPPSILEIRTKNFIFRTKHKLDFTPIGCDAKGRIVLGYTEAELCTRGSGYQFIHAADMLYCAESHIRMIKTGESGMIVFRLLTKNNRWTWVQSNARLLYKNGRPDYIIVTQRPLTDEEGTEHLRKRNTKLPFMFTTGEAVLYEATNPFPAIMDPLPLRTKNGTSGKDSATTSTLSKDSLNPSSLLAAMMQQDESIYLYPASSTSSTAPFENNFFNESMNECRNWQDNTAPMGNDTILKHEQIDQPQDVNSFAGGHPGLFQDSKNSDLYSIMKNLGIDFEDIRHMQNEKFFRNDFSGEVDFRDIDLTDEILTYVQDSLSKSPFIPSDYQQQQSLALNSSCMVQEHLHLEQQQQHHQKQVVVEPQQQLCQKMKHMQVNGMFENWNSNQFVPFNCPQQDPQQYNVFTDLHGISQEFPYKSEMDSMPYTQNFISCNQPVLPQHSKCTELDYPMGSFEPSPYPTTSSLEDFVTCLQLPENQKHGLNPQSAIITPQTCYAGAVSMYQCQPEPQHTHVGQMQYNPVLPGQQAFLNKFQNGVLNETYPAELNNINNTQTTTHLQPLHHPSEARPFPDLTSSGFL
AhR (baculovirus);Arnt (baculovirus), sequence (P27540 whole entry, chain 2 of 2): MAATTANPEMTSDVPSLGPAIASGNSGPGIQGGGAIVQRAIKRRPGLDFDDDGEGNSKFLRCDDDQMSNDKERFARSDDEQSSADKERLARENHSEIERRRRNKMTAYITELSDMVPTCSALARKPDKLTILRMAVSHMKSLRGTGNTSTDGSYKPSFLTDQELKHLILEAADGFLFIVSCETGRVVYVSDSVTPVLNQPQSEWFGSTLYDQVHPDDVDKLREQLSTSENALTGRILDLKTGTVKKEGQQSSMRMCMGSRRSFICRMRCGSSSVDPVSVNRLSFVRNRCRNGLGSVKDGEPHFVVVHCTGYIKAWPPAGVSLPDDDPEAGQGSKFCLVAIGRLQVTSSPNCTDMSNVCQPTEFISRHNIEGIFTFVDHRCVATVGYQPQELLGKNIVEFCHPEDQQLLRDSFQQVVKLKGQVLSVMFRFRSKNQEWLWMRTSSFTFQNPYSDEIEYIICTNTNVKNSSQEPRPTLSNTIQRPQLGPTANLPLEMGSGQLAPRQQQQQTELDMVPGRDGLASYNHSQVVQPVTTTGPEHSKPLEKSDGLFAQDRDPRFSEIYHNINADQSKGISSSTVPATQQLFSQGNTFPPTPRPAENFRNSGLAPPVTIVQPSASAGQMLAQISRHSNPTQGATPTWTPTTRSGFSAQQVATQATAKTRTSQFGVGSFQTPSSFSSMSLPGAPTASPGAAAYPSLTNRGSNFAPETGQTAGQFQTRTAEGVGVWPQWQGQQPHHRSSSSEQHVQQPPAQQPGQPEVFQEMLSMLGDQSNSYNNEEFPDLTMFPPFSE

B1: DRE gel shift probe (OL439/OL440) (dsDNA)
DNA 1: TCGAGTAGATCACGCAATGGGCCCAGC
DNA 2: TCGAGCTGGGCCCATTGCGTGATCTAC
B1: binds.
